The source of these data is publication PMC3305813 (Neuron, 2012).

The target in one assay is CYSL-1 (Caenorhabditis elegans, UniProt Q93244, R259K). The experiment in a line: O-acetylserine sulfhydrylase assay. The following applies: co-substrate sulfide. The class given is biochemical.
For another assay, the target named is T1, recombinant CYSL-1 (C. elegans, UniProt Q93244 1-341).
T1 sequence (looked up): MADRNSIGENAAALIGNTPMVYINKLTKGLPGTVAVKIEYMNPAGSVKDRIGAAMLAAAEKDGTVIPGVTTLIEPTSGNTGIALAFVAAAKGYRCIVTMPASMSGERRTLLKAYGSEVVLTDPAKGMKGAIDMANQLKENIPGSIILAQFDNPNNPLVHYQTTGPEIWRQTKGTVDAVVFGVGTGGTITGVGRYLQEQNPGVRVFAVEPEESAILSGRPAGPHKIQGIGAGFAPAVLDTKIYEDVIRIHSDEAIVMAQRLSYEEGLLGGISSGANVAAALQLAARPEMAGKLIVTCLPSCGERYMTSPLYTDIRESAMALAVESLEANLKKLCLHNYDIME
The experiment in a line: other fluorescence titration.

Sequence of CYSL-1 (Q93244 whole entry R259K): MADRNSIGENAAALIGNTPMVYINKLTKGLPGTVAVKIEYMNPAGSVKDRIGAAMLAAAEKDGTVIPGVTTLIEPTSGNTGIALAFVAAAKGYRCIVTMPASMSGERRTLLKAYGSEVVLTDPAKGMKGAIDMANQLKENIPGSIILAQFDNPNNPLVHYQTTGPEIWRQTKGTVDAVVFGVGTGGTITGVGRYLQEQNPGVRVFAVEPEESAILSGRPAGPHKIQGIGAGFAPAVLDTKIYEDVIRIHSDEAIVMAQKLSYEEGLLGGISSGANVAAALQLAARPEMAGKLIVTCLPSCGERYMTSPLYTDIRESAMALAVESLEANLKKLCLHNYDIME

For `CC(=O)OC[C@H](N)C(=O)O` [OAS], the O-acetylserine sulfhydrylase assay result on CYSL-1 is reported as “exhibited levels of OAS sulfhydrylase activity similar to that of wild-type CYSL-1”.

B1: EGL-9 C-terminal peptide, last 14 residues (peptide, UniProt G5EBV0 710-723, looked up)
peptide: GLPPPPSTNPEYYI
On to B1, for which the binding result in the assay with recombinant CYSL-1 is reported as “binds”.

B2: EGL-9 C-terminal peptide, last 10 residues (peptide, UniProt G5EBV0 714-723, looked up)
peptide: PPSTNPEYYI
B2: the binding result with recombinant CYSL-1 is “binds”.
